pKd: −log10 of the molar value.
Molecular target: CohE-CBM(C63S)-ybbR (Ruminococcus flavefaciens)
Experiment: ITC

pKd: 6.83
Substance: ybbR-CBM(C63S)-ScaB-XDoc (domain or fragment)

— publication PMC6939381
